This passage reports protein production results from a protein production outcome set (Wang et al. 2014).

The nature of this data set: label from the status in PepcDB records.

On to “MKYLHFTRPTIKVIFMINSIKTLLLIATLAILSACGWHFQQSVTMPSEWRTLALESDDSYNDFTVIMRRKLQENQVNVVNLEQNIPILRINKQITSDQVASIFKHGREAEKLLMLEVEATFRLANGESYPINAKVNRTFFDNARAALAKSEEREVIWNDMREQVARQLIVKIIALQNQIKRKLEHHHHHH”, for which the protein production result is recorded as “failed”.

For the sequence “MKYMIPDEEFIRREGVPITKEEIRAVSIGKLNLNKDDVVVDVGCGSGGMTVEIAKRCKFVYAIDYLDGAIEVTKQNLAKFNIKNCQIIKGRAEDVLDKLEFNKAFIGGTKNIEKIIEILDKKKINHIVANTIVLENAAKIINEFESRGYNVDAVNVFISYAKKIPSGHMFLAKNPITIIKAVR”, the protein production result is reported as “not failed”.

On to “MKYNKDGQTFLLVLDKGEDIVEVLTQFAMEQEMKFGSVSGIGACDNVTLIFYNLDTQKYESREVNEALELTSLLGNISHIDDKPFAHLHGTFGTRDFQTLSGHLTKAVVSATAEIVIQMTNLDVNRTHDEETGLNLLRP”, for which the protein production result was “failed”.

Regarding “MKYSWNKTVFPIAAIFSFRLLGLFLLIPVFTLYATNLKGATPTLIGLALGSYGLAQGLLQIPFGMLSDKLGRKPMIAIGLLLFAGGSLLGAVTHSIAGMITARILQGAGAIGSVLIALLADLTLDEQRTKAMAIVGITIGTSFSLAMIISPALTHYYGLSGVFYLTAALAVLGIMILYLIIPNPSKEQFHADSEPSLSLIKPVVTDQHLQRLNFGIFCQHFILTATFFAIPMLLKYQIENGHLHQQWHFYLPLMLFSFILMVPFIIISERKKRLKTVFVISVLLTTFTQGLLVLASQNWYWFCILMFVYFVSFNVLEATLPSLVSKLASPGSKGTAMGIYSTSQFLGIFFGGSLAGILYQWYDNQAIFLINMILSCLWFIISLSMKSNVYFSTLILPFTANNEESKLVVNQLLKVAGIKEVILSKDENTLYVRVDNEEYSTGSAEKILHQSTIYQ”, the protein production result is “failed”.

As for “MKYTIEEIRQMQEGQTFDCKSILIEPKHLATIIVAMANADGGMIAVGISDKTRRIEGVNQDKEHLNDILRTPLDFCVPSVSVTTDYVPCTDAEGRDNRVLLMHIPASPRLHANQADEVFWRVGDKSRKLTFDERLQLMYDKGERYYEDSTAYDATLDDIDMDAVKAYMKRIGYGKSAMEYLQENKGFVTYKGDVPQVSAACILLFGKHPQTFFPRARVRFIKYFGTEEKVGREMNVIKDVTFDGRILEQIQKTVEYLETQVKEHSYLGEDGIFKTDREYPKFVIQEMVVNSVCHRDYSIKGTEIQIKMFDDRLVFETPGKLPGIVRTDNIRHTHFSRNPKIAEFLKAYDYVKEFGEGVDRMCRELSALGVKEPQYNLVAFIMKATVCAKVLEERQGTNHFDQKRPESDQKSDQMRIILELIKSNPNISRTELSEKTGLHDSSVKRRLKTLVDEGLIQRVGPDKGGQWKVIGSLLEHHHHHH”, the protein production result was “not failed”.

For “MKYYDEVPIIRSVAAMLVVAIHTVNSIALSRGTFTSDGLGYVNQIARLGTPIFAVISAFLLTISVVNKGFNLDYFVKSRFSKIFIPYIIWTVFYLLYRAFYLHNLEDDGKLLNYFVYGKANFHLYFILTVIQFYFLFPLLQKFKKGWPIIIVYILATIANIIWIRMGPVSLGGGGVERFVNDKLFIMNWISFFMLGIVYAKFYNEIRILIFKHKAILSTIIGILFIDFLLSIDLDHLQSSITVSNMIYIPFFIVFLNYLYEHVKKNHTILKTLTLIGNYSMGIYLVHYVAIQFVKRLPIIEDIVPQSKFMGVFILTVAVSVLIVYLIGKIPYGNYIVPIPKKKATQTTDVDKKKVTQSKHTPNYNS”, the protein production result was “failed”.

For the sequence “MLAAAVLPKLLRHMPLSMPMVFLGSGILAFTLLPELPDPDPVKYGDFTTHLTEVCVIISLMGAGLALDRPFRWRGWSTTWRLLGIVMPLCILVMTLLGLWVLGLGLAGAILVAGAIAPTDPVLASEVQVGKPADAEDDPDEDEVRFALTSEAGLNDGLAFPFVYLAILISLVGASPDAWLGEWVALDVLWRTVAGVLVGFGTGKLLSMFFFAAKGKTFRLSEHSEGFVALAATFLAYGAAEMVEGYGFVAVFLCALTIRSAEHNHSYHQVLHSYVEQLERLMTVVILVLLGGAIARGLLEGIGWTEVLVALAFLLLVRPLAGWLGLMGGKTGPRERLAISYFGIRGIGSLFYVAYALTHGNFDAEARELWALIGLVVALSIVVHGATTAPLMNRLDRLRVAEARKQHGDEGRAPTTAV”, the protein production entry was “failed”.

Turning to “MLAAEANLELDRETIRRQLWQSEAPEKRAGSLRQLLARIEQSIPAALPPLLKATRTHIGLADGWEVDVHMLKQKGPLAAEDGDILNGELLESAKSPTQGAEDWLTFERQRVDELRAAHLTRLVETAEDRSDEEQVAFARRLLELDPASETAYRALMRTYVRMNDPAAARQTYLKCKSQLKDEFDAEPEESTTALARELGLIPAAQPAAAERPSAGPSGFADLLGQPRIIILPPESIFTDPLMERVGRALLEDVTIGLSQQRGFRVIAAHTSLEILSRSVDPARAVPRPLDLSFDYAVYVTIQGRDEDVYATCRLTRTTTSEVIWALELPLVMQKISESFAHLTRRIVSSLADTVERHELAMPIGDAPPSAYRLYLEGKRLIAQTDLQHLRQARKWFKSSLNRYENFSAAHAGVSRALGMEWLIRGMQDTELLDEANGAARQAQQSDPNSGRAYRELGFVALYRRRFDESLDYFQQAQDLNPNDADILADYADALCHYGDFDKALDLNNAAFKLNPLPPDYYYWNRGGIHFDRGEYQQAIEALEPVKSKQATARLLAAAHAMAGDMKKAGGYASVVLDNFPDFRSEDIRHFVPDRDPRYTETLIHGLHLAGLP”, the protein production entry is reported as “failed”.

For “MLAEAGTGTGVAAAASHDAPPKAVPRQLPAPPRITAFLSAFATPPPHCLRLNKSLNGLHNPVTLHVVCQYMLLRSVHGGRERYLNAHVSQGSWPVLVLNADFRPLSYYPLSLWSWQDAIKAVFLDRVNIVAHYDQAVRSPTLEMQLPSVVSLKSFVKPTTHPAFTRFNVFLRDRFACQYCGSPEDLTFDHIIPRSKGGQTTWENVVAACSPCNLRKGNLTPAQAKMFPRQSAFAPTVHQLHRNGRMFPPNYLHDSWLDYLYWDTELDP”, the protein production entry is listed as “failed”.

For “MLAILIFSFLLVILVAGNNSSAVSGTIIGSKMMNKSLALAITAVGYIAGYLLEGRFLQHAVNELLPFEPEYVLYAIIASFVIFTIAFFVKVPISLTMALVGSAIGLSLKLGYSSDARFLTEVIIAWIAAPLISVGSSYVFNDRLSKMRHGDIWRYASAIKVMPIVTAIFTAFTLGANTIGFLGDISGTAVFNEILISIGSVIGTFFFSSGIMKSVSQNMYMMKYTNAFSSQLISALVVEVSTLFSIPMSNTQTLTSAVLGAGLSYRAKAIYLKPFLYIVIMWILSPLIGMAFTYALA”, the protein production result is “failed”.

Turning to “MLAKIIMKNFKSFKNETVIDFTRINYKFLENNVSNNGVLKGVAFYGANASGKSNVLWAIRFLLDELFGEEKNPVTFMKCLFSDEPEFSLQYFFVIESREIHYLIDFHTEKGIINEELYLDRKLLLQRMGSTAKSGITEKKVYTDLNNKVLFLRTVYFNTGFSGDDKDNNANNNILRQWFDYMQNSIYVNPFLHRGIAYGKQDVVLNKYLENEGVKEINRFFTKYNFEYTLDYLNERKVKDVTEIVNDDNIKLVFFNRKGVNVPIPYVLESHGNQNLLNILPCFLRVVQNSGMLLVDEFSGGLHNELERLLVNYFFLEHHHHHH”, the protein production result was “failed”.

Turning to “MLAKSLGWLLAVSRRNYCMGSRTALASRPWSKHLADPQIDPTAYVHSFANVVGDVRIQPGVSVAPGSSIRADEGTPFWIGGNVLIQHGVVIHGLETGRVLGDDDQEYSVWIGPGTCVAHLALVHGPVYLGANCFIGFRSTVLNARVGDGAVVMMHSLVQDVEIPPNKLVPSGAMITQQHQADSLPDVQAGDRHFVQQIAAMHGQSASPTQGTDPTVCVLPESLPAVTPVTETPYINSIDNMSINSDITNQIRSLLAQGYGIGAEHANERRFKTKSWQSCGTADGFRPDQVIATVEGWLQEFAGEYVRLIGIDQGAKRRVVEVIIQRPGDVPGSPSRGTTTTKALSSGGSGRSAVAHQTGNLAGDSANQLRALLHQGYKIGLEYASARRFKTGSWLTGGTIGSHREGEALQELNRFLADHTNEYVRIIGIDPAGKRRVAEIVVHRPNGNGNGKPSSSSSSVGYKSAPVSSAGGSSAGGLTPEVIATVRGLLANGHSIGTEHTDKRRFKAKSWDTCPTIDGGREAEVLAKLEACLADHAGEYVRIIGIDRVGKRRVLEQIIQRPGDNVVAGRSPSSSSASTSSSASSNGFGSGNGGGYSNSAVRLDNSVVTQVRSLLAQGYKIGTEHTDKRRFKAKSWQSCAPITSTHESEVLRALEGCLADHNGEYVRLLGIDPTAKRRVLETIIQRP”, the protein production entry is “failed”.

For “MLALPTTFAKSPIDNEASIEETTPKWSVNSPQGNFTTADIDVRSGTWMNVDLNPDGKTIIFDLLGDIYTMPASGGEATPLMTDIAWQMQPRFSPDGKYIAFTSDEDGGDNLWIMKADGSEAKAVTTETFRLLNSPAWSPDGNYIVGRKHYTGTRSLGAGEVWMYHKSGGNGVMLTKRPNEQKDLGEPAFSHDGKYVYFSQDATPGKSFHYSKDSEKGIYKIKRLELETGEIKVVVSGKGGAIRPTLSPDGKYLAFISRDDFQSNLYLYNLKNGEQSKVYDGLDRDMQETWAIHGVYPTMAWTPDSEGLVFWSGGKINKLSLDSKKAKVIDFHVKTTKKIQTAVRFPQDLDQKSFDTKMLRDVKVSPNGKLAVYESMGHLYTKSLPKGKPKRLTKQKSQFELNPSFSRDGKKIVYVSWDDKNLGQVRVVSSRGGKGKTITREPGKYVEPSFSPDGKAVVYRKVTGGFITDPTWGLNPGVYAVSVKGGKAKLVTEEGVQPHFGARNDRIYVTRDGETPHISRIDIDGQHDTKLYQGKFASEYRVSPDGNYLAFAERFKVFVTPFVERGDVIDIGPKAENLPVEQLSMRAGEGINWNGKSNELYWSLGADLYQASIKGLFDITAKTTDENDDGSEPETSASTVVNDINVINLSYKQKVDIPSGHVAFVGGKVITMEGEQVIDNGVVLVEGNKIKAVGTKGQVNIPSDATIIDITGKTVMPGLIDAHAHGPQGSNEIIPQQNWKNYAGLALGVTTIHDPSNDTTEFFAASEMQKAGKIVAARLFSTGTILYGATIPGYTSHVDSLDDAKFHVERLKAAGAFSVKSYNQPRRNQRQQFIQAARELEMMVVPEGGSLLQHNLTMVVDGHTTLEHSISTAKIYADIKQLWSQSDMAYTPTMGVAYGGISGENYWYDTTNVWEHPRLSQYVPSEFLDPRSMRRPKAPLHHYNHFNVAKVAKEMQDLGVVVNAGGHGQREGLAMHWEMWMMAQGGMSPLQAIRTATISPAKSLGLDKDLGSLTVGKLADMIVIDGDITQDIRLSDKVTHTMINGRLYNADTMNEIGNYDNKREKFYFENK”, the protein production result is “failed”.

Regarding “MLAMKLGIVGLGGWVTGAHIPALTDLGIKVDYCADIDEKRVKDLSQKTGCKGYLDYKEMLRNENPDLVLVAVPHSLHAIIALDAINNDANVYVEKPMATSFQEALTLVEASRKRNKILVVGHENRFNPAMLIAKKLIRGGEVGKIYHMRGFYIRQRGIPTSPTFIKKDLAKGGAVFDIGTHIIDLLLFLSDFPTPKSVTGKTYNAFSEDKTKFSAYPSPNLPNFKVEVEDFGSAFLKLGDEISAYVEVSWASYIKENKMEVVILGDNGGIHIDNGVLNFMRNIEDELFISSPLTQQKGSVYREVWRTVMESISKGFPEYPLCSAEQGAIGVAILESIYKSALEGREVKIDIPQWFLKQFQPRALEHHHHHH”, the protein production entry was “failed”.

On to “MLCIPATRDQTVSSHPAGTRQKKLFSQNDYLAPLPLPTGQQPVDSLNIIWRKNEVYIDIGCYSVGSAVMVIWPMMIMFISLAYGLNDIDLLWLGVIITGIPTLMLIHGLLRPTPPPVRFNRQRREVCVPRDNGEYWIVPWESVTAASTQCSSIGQAGRVTMGLLFIGFENPDAEASEDNKHFSMGFNCGGGETAMALWECMRSYMEIGPEVVPESRVGAMPYEKTQIGSIVTSLRKGDVFDVLHGLFFITILGTYLAEKLQNLKLSPPPDLEYPDIIEWSKSLPPEQWATPSPELLAALARQAATS”, for which the protein production result is recorded as “failed”.
